# From patent publication US20230322906A1
# Target: BG505.SOSIP CD4bs variants (BG505.SOSIP.D368R, BG505.SOSIP.N279K, BG505.SOSIP.D368R/N279K (DKO))
# Experiment: ELISA AUC normalized to BG505.SOSIP.backbone
row,Binder,fold decrease in binding against BG505.SOSIP Env [fold]
1,"6420-233.1 (antibody, V domains shown) VH: EVQLVESGGALVQPGGSLRLSCAASGFNFISYGMNWVRQAPGKGLEWISYISSASNTIYYADSVKGRFTISRDNAKNSLYLQMTSLRDGDSALYYCARDIVTIFFRGRSQHAFSVWGQGTAVAVSS VL: SYVLTQPPSVSVAPGQTARITCGGNNIGSKNVHWYQQKPGQAPVLVVYDNSDRPSGVPERFSGSNSGNTATLTITRVEAGDEADYYCQVWDISSDHQVFGGGTKLTAL",> 2
2,"6420-233.2 (antibody, V domains shown) VH: EVQLVESGGGLVQPGGSLRLSCAASGFDFRTYSMNWVRQAPGKGLEWLSYISSTSATIYSADSVKGRFTISRDNAKNSVYLQMNSLRVDDTAVYFCARERITVFFRGRSQHASNVWGQGTMVTVSS VL: SYVLTQAPSVSVAPGQTARITCGGDNIGNKNAHWYQQKPGQAPVLVVYDNSDRPSGIPERFSGSNSGNTATLTISRVEAGDEADYFCQVWDSSSDHQVFGGGTKLTVL",> 2
3,"4591-2 (antibody, V domains shown) VH: QVQLQQWGAGLLKPSETLSLTCDVSGGSFSDFYWSWVRQSPGKGLEWIGDINHSGSSNYIPSLDGRVTISVDTSRSQFSLNLTSVTAADTAIYFCARKVWPFNGMDVWSQGTTVTVSS VL: ATQLTQSPSFLSASVGDRVTITCRASQGIRNFLAWYQQKPGKAPNLLIYAASTLQSGVPSRFAGSGSGTEFTLTINNVQPEDFATYYCQQLTNYATFGQGTKLEIQ",> 2
4,"6420-35 (antibody, V domains shown) VH: EVQLVESGGDLVQPGGSLRLSCLGSGFDFRTYGMNWVRQAPGKGLEWVSYISSTSSAIYYTDSIEGRFTISRDNGKNLLSLQMSSLRDEDTAVYYCARGGSLWFGREFHAMDVWGRGTTVTVSS VL: QAVVTQEPSLTVSPGGTVTLTCGSSTGAVTSDHYPYWFQQKPGQAPRTLIYDTINRHSWAPARFSASLLGGKAALTLSGAQPEDEAEYYCLLSYSGARRVFGGGTKLTVL",> 2
5,"6420-48.1 (antibody, V domains shown) VH: EVQLVESGGGLVQPGGSLRLSCAASGFTFNTYEMNWVRQAPGKGLEWVSYISGTGNNIYYADSVKGRFTISRDNAKNSLYLQMDNLRAEDTAVYYCARGGQLWFGERLYFHFWGQGTLVAVSS VL: DIQMSQSPSSLSASVGDRVTITCRASQSIGNNLNWYQQKPGKAPNLLIYAASNLQSGVPSRFSGSGSGTDFSLTISSLQPEDFTIYYCQQSFSTPITFGQGTRLEIK",> 2
6,"6420-48.2 (antibody, V domains shown) VH: EVQLVESGGGLVRPGGSLRLSCAASGFTFNTYEMNWVRQAPGKGLEWLSYISSTGNNIFYADSVKGRFTISRDNAKNSLYLQMNNVRTDDTALYYCARGGQLWFGERLNFQHWGQGTQVTVSS VL: DIQMTQSPSSLSASVGDRVTITCRASQTISNNLNWYQQKPGKAPKFLIYSVSVLQSGVPSRFSGSGSGTDFTLTITSLQPEDFATYYCQQSHSTPLTFGQGTRLEIK",> 2

# Target: trimeric Env protein (HIV-1 Env gp140 trimer antigens of the panel: ZM197, CNE55, CZA97)
# Experiment: ELISA (AUC) on HIV-1 Env gp140 trimer and gp120 monomer panel
row,Binder,binding to trimeric Env protein relative to monomeric Env protein [times]
1,"4513-11 (antibody, V domains shown) VH: QVQLAQSGAEVKKPGSSVKVSCHVSGGTFSTYAINWVRQAPGHGPEWMGRITPISGATDYAQKFQARITISADESTSAAYLEVRTLRSDDTAVYYCARVGQPKFFERSSDGEHFQHWGQGTLVTVSS VL: DIQMTQSPSTLSASVGDRTTITCRASQNIDKWLAWYQQKPGKAPTVLIFKASTLESGVPSRFSGSSSGTEFTLTIDNLQPEDSATYFCHQYSRYPWTFGQGTKVELK",> 3
2,"4513-12 (antibody, V domains shown) VH: QLQLQESGPGLVKPSETLALTCSVSGGSIFSSNYYWAWIRQPPGKGLEWMGSVYFSGTTFYNPSLKSRVIVSVDTAKNQFSLKLNSVSAADTAIYYCARDVRMRSGRPRQYCMDVWGKGTTVTVSS VL: EVVLTQSPGTLSLSPGERATLSCRASQSVNSIYLAWYQQKPGQAPRLLIYGASNRAAGIPDRFSGSGSGTDFTLTIDRLEPEDFAVYYCQQYDTSPAVTFGPGTKVEIK",> 3
3,"4513-14 (antibody, V domains shown) VH: QVQLVQSGREVKKFGSSVRVSCKASGGSFDTYAISWVRQAPGQGLEWMGQITPMFGTSHMSQRFQGRLTIDTDDSTGTVFMDMRGLRTEDSATYYCAKDWSFDDDGGAYVPSAMDVWGQGTTVIVSS VL: EIVLTQSPGTLSVSPGERATLSCKASQSISSSSLAWYRQTPGQTPTLLIYGTSTRATGIPDRFSGRGSGTDFTLTITNVKPEDFAVYYCQQYGSSPFTFGPGTRLDFR",> 3
4,"4487-4 (antibody, V domains shown) V domain 1: QVQLVQSGTELTKPGMSVKISCRASGTTFTRPYVHWVRQAPGQGLEWMGMINPTGVNVFSAQKFQGRVTMTRQTSTHTSFLELVSLTGDDTAVYYCATSSGVVSLRSAFDIWGQGTILIVSS V domain 2: QSALSQPASVSGSLGQSITISCSGVGSDAVTYTVVSWYQQHPTKAPKIIISDGDKRPSGVSSRFSGSKSGNTAFLRISGLQTDDEALYYCCSYVGSNTWVFGGGTTVTVL",> 3
5,"4487-5 (antibody, V domains shown) VH: QMQLVQSGPEVRKPGSSVKVSCKASGGTFDNSAITWVRQAPGQGLEWMGGIIPFVGAAAYAQRFLGRATITADASTTSSYLELRGLTSDDTGVYFCARDGLRLNFYYYGMDVWGQGTPIIVSS VL: QIVLTQSPGTLSLSPGDTATLSCRASQRVTHTHLAWYQQKPGQPPRLLIYATSQRATGIPDRFRGSGSGRDFTLTIASLEPEDFAVYYCQQNGESPRMFGQGTKLDVK",> 3
